The text below walks through data of US20200181238A1.

In assay [1] the target is ICAM-1 on tumor cells (HeLa, 8505C) (human) (UniProt P05362). As to the kind of experiment: cell-based or functional assay.
Assay [2] has the same target. Put plainly: estimated from titrated R65 antibody binding to HeLa cells.
Assay [3] shares this target. As to the kind of experiment: flow cytometry, HeLa cells, R6.5 antibody at 10 µg/ml; ICAM-1 negative 293T control reads 0%. A general note: A flow cytometer gives signals particle by particle.
Assay [4] has the same target. Put plainly: flow cytometry, 8505C cells, R6.5 antibody at 10 µg/ml; ICAM-1 negative 293T control reads 0%.

Chain of ICAM-1 on tumor cells (HeLa, 8505C) (human) (P05362 28-532): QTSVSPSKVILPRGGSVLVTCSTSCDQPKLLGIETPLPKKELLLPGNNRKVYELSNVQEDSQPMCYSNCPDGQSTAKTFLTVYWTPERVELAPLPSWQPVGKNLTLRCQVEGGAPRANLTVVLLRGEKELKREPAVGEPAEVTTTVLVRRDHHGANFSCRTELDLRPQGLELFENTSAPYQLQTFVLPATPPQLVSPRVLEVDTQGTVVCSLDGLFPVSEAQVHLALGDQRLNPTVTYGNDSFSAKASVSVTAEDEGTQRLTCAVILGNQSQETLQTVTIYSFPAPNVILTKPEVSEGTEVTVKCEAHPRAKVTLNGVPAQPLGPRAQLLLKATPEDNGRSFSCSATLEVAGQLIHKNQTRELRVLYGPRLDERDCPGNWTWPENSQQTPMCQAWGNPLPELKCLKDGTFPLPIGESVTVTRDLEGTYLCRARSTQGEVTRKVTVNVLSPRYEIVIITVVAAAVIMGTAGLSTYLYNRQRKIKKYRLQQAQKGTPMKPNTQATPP

Turning to “R6.5-CAR (third generation anti-ICAM-1 chimeric antigen receptor on primary human T cells) (from UniProt P10747 153-220; Q07011 214-255; P20963 52-164) (scFv)”, in assay [1], the percent of 8505C cells viable after 24 hours with CAR T cells, E:T 2.5:1 (bioluminescence, normalized to non-transduced T cells) was 52% and the percent of HeLa cells viable after 24 hours with CAR T cells, E:T 2.5:1 (bioluminescence, normalized to non-transduced T cells) came to 17%.

B1: murine monoclonal anti-human ICAM-1 antibody R6.5 (antibody, from another filing, V domains shown)
VH: QVQLQQSGPELVRPGVSVKISCKGSGYTFIDYAIHWVKESHAKSLEWIGVISAYSGDTNYNQKFKGKATMTVDKSSNTAYLELARLTSEDSAIYYCARGGWLLLSFDYWGQGTTLTVSS
VL: DVVMTQSPLSLPVSLGDQASISCRSSQSLVHSNGNNYLHWYLQKSGQAPKLLIYKVSNRFSGVPDRFSGSGSGTDFTLKISRVEAEDLGVYFCSQSTHVPLTFGGGTKLEIKR
As a reminder, the Kd is a measure of binding affinity in units of concentration. With B1, the dissociation constant Kd in assay [2] was 10 nM. In addition, the % ICAM-1 positive cells in assay [3] amounted to 100%; in assay [4], 97%.
